Measurements from patent publication US20060257928.

Molecular target: biotinylated H3 peptide (first 21 amino acids of Histone H3 with a Biotin label on the CO2H terminus, Upstate Biotechnology), P68431

B1: SUV39H1(82-412)-GST protein (protein)
chain: CVRILKQFHKDLERELLRRHHRSKTPRHLDPSLANYLVQKAKQRRALRRWEQELNAKRSHLGRITVENEVDLDGPPRAFVYINEYRVGEGITLNQVAVGCECQDCLWAPTGGCCPGASLHKFAYNDQGQVRLRAGLPIYECNSRCRCGYDCPNRVVQKGIRYDLCIFRTDDGRGWGVRTLEKIRKNSFVMEYVGEIITSEEAERRGQIYDRQGATYLFDLDYVEDVYTVDAAYYGNISHFVNHSCDPNLQVYNVFIDNLDERLPRIAFFATRTIRAGEELTFDYNMQVDPVDMESTRMDSNFGLAGLPGSPKKRVRIECKCGTESCRKYLF
Histone methyl transferase activity (radioactive assay, 14C labelled methylated H3 peptide): Histone methyl transferase activity of truncated protein was confirmed by radioactive assay
